# Measured values published in patent US20230050972A1 (MOMENTA PHARMACEUTICALS, published 2023).
# T1: in-house generated I domain of α11β1 (human, UniProt Q9UKX5 159-349, limits assumed)
# T1 construct: domain: I domain; also called human α11β1 I domain; α11β1 I Domain
# T1 sequence (looked up): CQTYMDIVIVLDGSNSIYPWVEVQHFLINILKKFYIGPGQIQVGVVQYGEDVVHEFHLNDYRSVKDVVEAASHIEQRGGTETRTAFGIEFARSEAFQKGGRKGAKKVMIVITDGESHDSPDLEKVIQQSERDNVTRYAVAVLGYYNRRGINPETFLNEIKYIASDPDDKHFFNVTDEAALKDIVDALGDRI
# Experiments:
# recombinant human α11β1 = target: T2, recombinant human α11β1 (human, UniProt Q9UKX5 23-1141; P05556 21-728); assay: ELISA on recombinant human α11β1
# T2 construct: Coated in ELISA; ELISA and SPR material treated as one molecule; also called HIS-tagged human α11β1; integrin alpha 11 beta 1
# Description: (§1) 0.25 μg/mL of target antigen (recombinant human or mouse α11β1) was plated in a 96-well plate over night at 4° C. Plates were washed (PBS with 0.1% Tween-20), blocked (PBS with 2% BSA and 0.05% Tween-20) for 1 hour at room temperature and incubated with a range of antibody concentrations for 1 hour at room temperature. Subsequently, plates were washed and incubated with biotinylated anti-rabbit/mouse/human IgG in a 1:1000 dilution buffer and incubated for 1 hour at room temperature. After washing the plates, Streptavidin HRP was added at 1:200 in dilution buffer and incubated for 1 hour at room temperature. Ultra TMB ELISA substrate solution was added and the plates incubated for 5 minutes on a plate shaker. The reaction was stopped by adding stop solution to each well and plates were read at 450 nm.
# [1] = target: T1, in-house generated I domain of α11β1; assay: binding to isolated I domain
# recombinant mouse α11β1 = target: T3, recombinant mouse α11β1 (mouse, UniProt P61622 23-1141; P09055 21-728, limits assumed); assay: ELISA on recombinant mouse α11β1
# T3 construct: also called murine α11β1
# T3 sequence (P61622 23-1141 limits assumed, chain 1 of 2): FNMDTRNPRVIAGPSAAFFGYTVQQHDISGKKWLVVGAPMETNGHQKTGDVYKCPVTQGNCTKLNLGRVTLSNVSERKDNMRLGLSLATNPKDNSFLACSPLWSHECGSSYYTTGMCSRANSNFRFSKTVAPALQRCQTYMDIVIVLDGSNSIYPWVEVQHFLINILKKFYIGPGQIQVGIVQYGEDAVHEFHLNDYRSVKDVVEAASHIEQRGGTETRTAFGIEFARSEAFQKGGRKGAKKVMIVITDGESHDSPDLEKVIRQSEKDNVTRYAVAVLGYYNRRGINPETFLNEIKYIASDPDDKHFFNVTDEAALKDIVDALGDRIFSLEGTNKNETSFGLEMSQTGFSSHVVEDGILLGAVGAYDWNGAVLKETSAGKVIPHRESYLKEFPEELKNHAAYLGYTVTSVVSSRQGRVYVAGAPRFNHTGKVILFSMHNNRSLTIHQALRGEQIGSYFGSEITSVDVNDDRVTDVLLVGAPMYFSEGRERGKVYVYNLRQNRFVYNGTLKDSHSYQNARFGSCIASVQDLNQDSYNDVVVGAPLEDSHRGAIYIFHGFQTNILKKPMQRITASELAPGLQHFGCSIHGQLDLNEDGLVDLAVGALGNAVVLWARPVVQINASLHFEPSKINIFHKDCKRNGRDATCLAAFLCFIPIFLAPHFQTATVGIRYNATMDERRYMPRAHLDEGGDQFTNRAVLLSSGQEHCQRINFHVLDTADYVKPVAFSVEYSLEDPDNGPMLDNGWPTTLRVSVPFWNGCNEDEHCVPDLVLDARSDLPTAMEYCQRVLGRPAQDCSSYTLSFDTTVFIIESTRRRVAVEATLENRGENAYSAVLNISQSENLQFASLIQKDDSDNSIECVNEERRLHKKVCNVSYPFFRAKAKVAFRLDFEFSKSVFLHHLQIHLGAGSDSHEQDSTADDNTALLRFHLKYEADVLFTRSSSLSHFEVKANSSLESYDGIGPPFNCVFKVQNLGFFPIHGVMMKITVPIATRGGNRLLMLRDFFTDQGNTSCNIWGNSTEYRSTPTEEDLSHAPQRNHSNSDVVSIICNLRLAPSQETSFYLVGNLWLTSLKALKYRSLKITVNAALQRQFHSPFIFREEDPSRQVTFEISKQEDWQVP
# T3 sequence (P09055 21-728 limits assumed, chain 2 of 2): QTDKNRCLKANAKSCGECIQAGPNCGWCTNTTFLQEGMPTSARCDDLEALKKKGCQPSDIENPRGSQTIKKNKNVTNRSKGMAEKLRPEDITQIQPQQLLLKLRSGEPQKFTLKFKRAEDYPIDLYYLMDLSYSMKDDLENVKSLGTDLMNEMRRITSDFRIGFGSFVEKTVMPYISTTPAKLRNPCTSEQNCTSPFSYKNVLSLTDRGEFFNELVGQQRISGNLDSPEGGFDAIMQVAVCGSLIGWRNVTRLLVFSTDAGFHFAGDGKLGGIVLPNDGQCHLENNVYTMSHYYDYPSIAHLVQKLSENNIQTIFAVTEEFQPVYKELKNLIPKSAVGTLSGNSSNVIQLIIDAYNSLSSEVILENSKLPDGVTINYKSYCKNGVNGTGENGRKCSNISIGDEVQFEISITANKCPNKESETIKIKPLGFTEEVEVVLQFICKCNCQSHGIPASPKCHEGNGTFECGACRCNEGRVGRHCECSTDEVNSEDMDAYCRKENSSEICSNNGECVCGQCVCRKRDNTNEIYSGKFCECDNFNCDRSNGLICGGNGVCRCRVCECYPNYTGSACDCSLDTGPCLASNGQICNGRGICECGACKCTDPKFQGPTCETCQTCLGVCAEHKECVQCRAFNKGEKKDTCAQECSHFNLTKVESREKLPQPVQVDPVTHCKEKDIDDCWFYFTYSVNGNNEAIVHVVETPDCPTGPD
# Description: as §1
# [2] = target: T4, α11β1 on human myofibroblasts (MF) (human, UniProt Q9UKX5 23-1188; P05556 21-798); assay: FACS on human myofibroblasts
# T4 construct: whole, on cells
# T4 sequence (Q9UKX5 23-1188, chain 1 of 2): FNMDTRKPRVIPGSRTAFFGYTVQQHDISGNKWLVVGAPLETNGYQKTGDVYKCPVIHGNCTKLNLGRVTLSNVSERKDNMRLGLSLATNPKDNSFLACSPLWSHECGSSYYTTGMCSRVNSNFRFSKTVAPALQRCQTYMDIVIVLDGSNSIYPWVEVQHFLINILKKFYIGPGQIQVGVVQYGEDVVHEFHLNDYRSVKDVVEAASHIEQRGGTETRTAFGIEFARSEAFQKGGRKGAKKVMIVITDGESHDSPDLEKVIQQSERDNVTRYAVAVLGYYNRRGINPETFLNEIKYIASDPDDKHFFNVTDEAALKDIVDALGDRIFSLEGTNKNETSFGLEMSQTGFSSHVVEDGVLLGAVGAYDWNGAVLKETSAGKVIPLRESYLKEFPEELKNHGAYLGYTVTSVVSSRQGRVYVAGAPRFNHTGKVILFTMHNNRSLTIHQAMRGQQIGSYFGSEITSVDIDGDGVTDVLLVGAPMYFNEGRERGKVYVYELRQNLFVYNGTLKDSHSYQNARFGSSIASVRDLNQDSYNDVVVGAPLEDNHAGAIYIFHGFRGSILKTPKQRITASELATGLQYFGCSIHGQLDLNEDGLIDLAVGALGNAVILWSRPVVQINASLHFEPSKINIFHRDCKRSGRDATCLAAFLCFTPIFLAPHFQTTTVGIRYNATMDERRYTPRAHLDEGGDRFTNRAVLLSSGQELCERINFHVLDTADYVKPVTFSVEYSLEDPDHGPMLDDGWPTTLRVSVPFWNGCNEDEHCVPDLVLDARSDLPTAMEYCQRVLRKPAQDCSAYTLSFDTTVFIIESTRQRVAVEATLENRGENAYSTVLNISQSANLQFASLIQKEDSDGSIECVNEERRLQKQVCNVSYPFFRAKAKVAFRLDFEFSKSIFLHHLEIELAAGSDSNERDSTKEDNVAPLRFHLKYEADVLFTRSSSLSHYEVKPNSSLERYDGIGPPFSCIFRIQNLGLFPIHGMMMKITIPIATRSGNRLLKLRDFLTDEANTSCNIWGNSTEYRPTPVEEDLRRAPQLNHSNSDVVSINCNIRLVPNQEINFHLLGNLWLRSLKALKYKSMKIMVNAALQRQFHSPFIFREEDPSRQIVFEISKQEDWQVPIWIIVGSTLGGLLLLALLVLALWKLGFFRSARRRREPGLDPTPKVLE
# T4 sequence (P05556 21-798, chain 2 of 2): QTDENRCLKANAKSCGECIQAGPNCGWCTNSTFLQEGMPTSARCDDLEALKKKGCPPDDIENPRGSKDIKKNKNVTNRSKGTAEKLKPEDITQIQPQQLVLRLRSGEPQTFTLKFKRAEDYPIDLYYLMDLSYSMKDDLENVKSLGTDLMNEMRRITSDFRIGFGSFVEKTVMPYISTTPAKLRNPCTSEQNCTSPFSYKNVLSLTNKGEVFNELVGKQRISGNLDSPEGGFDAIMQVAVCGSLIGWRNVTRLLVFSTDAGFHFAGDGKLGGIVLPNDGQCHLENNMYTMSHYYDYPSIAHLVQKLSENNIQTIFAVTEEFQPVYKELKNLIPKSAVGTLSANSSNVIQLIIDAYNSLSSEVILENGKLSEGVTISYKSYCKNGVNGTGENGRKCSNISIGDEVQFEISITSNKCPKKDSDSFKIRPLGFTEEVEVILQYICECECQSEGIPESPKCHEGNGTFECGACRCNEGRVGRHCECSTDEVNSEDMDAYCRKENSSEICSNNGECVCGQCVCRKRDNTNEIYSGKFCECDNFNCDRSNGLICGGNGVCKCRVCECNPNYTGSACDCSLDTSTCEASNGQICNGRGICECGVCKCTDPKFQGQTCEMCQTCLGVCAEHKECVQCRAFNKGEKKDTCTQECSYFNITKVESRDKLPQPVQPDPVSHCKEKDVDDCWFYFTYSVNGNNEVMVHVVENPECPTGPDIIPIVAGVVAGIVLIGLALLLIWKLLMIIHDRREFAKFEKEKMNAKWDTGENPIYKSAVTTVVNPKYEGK
# Description: Human Pulmonary Fibroblasts (ScienCell) were cultured in complete Fibroblast Growth Medium (ScienCell) until 80% confluent in T-150 flasks. Cells were washed and harvested using Accutase. Cells were seeded into T-150 flasks at 7,500 cells/cm² in complete FGF and cultured for 72 hours. Cells were then washed and starved in serum reduced medium for 24 hours. After starvation, cells were treated with TGFβ-1 (R&D Systems) for 72 hours. Cells were harvested using Accutase and seeded in 96-well conical bottom plates. Cells were blocked with Heat Inactived Fetal Bovine Serum (Gibco) for 30 minutes at 4° C. Cells were then incubated with anti-α11 antibodies at the doses described in each figure for 30 minutes at 4° C. A human anti-α11 antibody (Creative BioLabs) was included as a positive control as well as the appropriate IgG isotype negative controls. Cells were washed twice and incubated with PE conjugated secondary antibodies specific to the IgG class of the anti-α11 antibodies being tested for 30 minutes at 4° C. Cells were washed twice and fixed in 1% PFA for 30 minutes. Cells were acquired on a FACS Verse […]. Data were analyzed by gating on single cells and determining the geometric Mean Fluorescence Intensity (gMFI) in the PE channel for each sample.
binding result (recombinant human α11β1),binding result [1],binding result (recombinant mouse α11β1),binding result [2],Binder
binds,no binding,binds,–,"6-B21 (antibody, V domains shown, mouse hybridoma IgG) VH: EVQLQQSGPELVKPGASVKISCKASGYTFTDYYMNWVKQSHGKSLEWIGDINPHNGGTSFIQKFKGKATLTVDKSSSTAYMELRSLTSEDSAVYYCAPLGRKEGFAYWGQGTLVTVSA VL: DTVLTQSPASLVVSLGQRATISCRASKSVSTSGYSYMHWYQQKPGQPPKLLIYLASNLESGVPARFSGSGSGTAFTLNIHPVEEEDAATYYCQHSRELPYTFGGGTKLEIK"
binds,–,binds,–,"10-L15 (antibody, V domains shown, mouse hybridoma IgG) VH: QVQLQQSGPELVRPGASVKMSCKASGYTFTSYWMHWVKQRPGQGLEWIGMIDPSNSETWLNQKFKDKATLNVDKSSNTAYMQLSSLTSEDSAVYYCARYDGYYDYWGQGTTLTVSS VL: NIVLTQSPASLAVSLGQRATISCRASESVDSYGNSFMHWYQQKPGQPPKLLIYLASNVESGVPARFSGSGSRTDFTLTIDPVEADDAATYYCQQNNEDPWTFGGGTKLEIK"
binds,–,binds,binds,"10-F23 (antibody, V domains shown, mouse hybridoma IgG) VH: QVTLKESGPGILQPSQTLSLTCSFSGFSLSTFAMGVGWIRQPSGKGLEWLAHIWWDDDKYYNPALKSRLTISKDTSKNHVFLKIANVDTADTATYYCARMPLTFYFDYWGQGTTLTVSS VL: DVLLTQTPLSLPVSLGDQASISCRSSQSIVHSNGHTYLEWYLQKPGQSPKLLIYKVSNRFSGVPDRFSGSGSGTDFTLKISRVEAEDLGVYYCFQGSHVPFTFGGGTKLEIK"
binds,–,binds,binds,"6-A12 (antibody, V domains shown, mouse hybridoma IgG) VH: QVTLKESGPGILQPSQTLSLTCSFSGFSLRTFAMGVGWIRQPSGKGLEWLAHIWWDDDKYYNPALKSRLTISKDTSKNQVFLKIANVDTADTATYYCARMPLTFYFDYWGQGTTLTVSS VL: DVLMTQTPLSLPVSLGDQASISCRSSQSIVHSNGNTYLEWYLQKPGQSPKLLIYKVSTRFSGVPDRFSGSGSGTDFTLKISRVEAEDLGVYYCFQGSHVPFTFGGGTKLEIK"
binds,–,no binding,–,"8H8E9 (antibody, V domains shown, rat hybridoma mAb) VH: QVQLKESGPGLVQPSQTLSLTCTVSGFSLTSNSVSWVRQAPGKGLEWMGAIWSGGSTDYNSALKSRLSISRDTSKSQVFLKMNSLQTEDTAIYFCTRSHWEPFDYWGQGVMVTVSS VL: DIVMTQSPFSLAVSEGEMVTINCKSSQGLLSSGNQKNYLAWYQQRPGQSPKLLIYYASTRQSGVPDRFIGGGSGTDFTLTISDVQAEDLADYYCLQHYSYPPTFGSGTKLEIK"
binds,–,no binding,–,"6E5C11 (antibody, V domains shown, rat hybridoma mAb) VH: QVQLRESGPGLVQPSQTLSLTCTVSGFSLTSNSVTWVRQPPGKGLEWMGAIWSDGSTDYNSTLKSRLSISRDTSKSQVFLKMSSLQTEDTAIYFCTRSHWEPFDYWGQGVMVTVSS VL: DIVMTQSPLSLAVSEGETVTMNCKSSQSLFSSGNQKNYLAWYQQKPGQSPKLLIYYASTRQSGVPDRFIGSGSGTDFTLTISDVQTEDLADYYCLQHYNYPPTFGSGTKLEIK"
binds,no binding,no binding,–,"6-O12 (antibody, V domains shown, mouse hybridoma IgG) VH: EVKLEESGGGLVQPGGSMKLSCAASGFTFSDAWMDWVRQSPEAGLEWVAEIRNKAHNPATYYAESVKGRFTISRDDSKSSVYLQMNSLRAEDTGIYYCTLVAPDAMDYWGQGTSVTVSS VL: DIVMSLSPSSLAVSVGEKVTMSCKSSQSLLYSRNQKNYLAWYQQKPGQSPKLLIYWASTRASGVPDRFTGSGSGTDFTLTISSVKAEDLAVYYCQQYYSYPYTFGGGTKLEIK"
binds,no binding,no binding,–,"18E10F10 (antibody, V domains shown, rat hybridoma mAb) VH: EVQLVESGGGLVQPGRSLKLSCAASRFTFSDYNMAWVRQAPKKGLEWVATIYHDDSGSYYRDSVKGRFTISRNNAKSTLYLQMDSLRSEDMATYYCARHNNGFDYWGQGVMVTVAS VL: DVVMTQTPVSLPVRLGGQASISCRSSQSLVHSNGNTYLHWYLQKPGQSPQLLINRVSNRFSGVPDRFSGSGSGTDFTLKINRVEPEDLGDYYCLQSTHFPLTFGSGTKLETK"
binds,no binding,binds,–,"3-G5 (antibody, V domains shown, mouse hybridoma IgG) VH: QVQLQQSGAELARPGASVKLSCKASGYTFTSYGISWVKQRTGQGLEWIGEIFPRSSNTYYNEKFKGKATLTADKSSSTVYMEFRSLTSEDSAVYFCAREGGLAWFAYWGQGTLVTVSA VL: DVVMTQTPLTLSVTIGQPASISCKSSQSLLYTNGNTYLNWLLQRPGQSPKRLIYLVSKLDSGIPDRFSGSGSGTDFTLRISRVEAEDLGVYYCLQSTHFPFTFGSGTKLEIK"
binds,–,no binding,binds,"9-B11 (antibody, V domains shown, mouse hybridoma IgG) VH: QVQLQQPGAELVRPGTSVKLSCKASGYTFTSYWMHWVQQRPGQGLEWIGVIDPSDSYTNYNQKFKGKATLTVDTSSSSAYMQLSSLTSEDSAVYYCARDDVAMDYWGQGTSVTVSS VL: DIVVTQSPASLAVSLGQRATISCRASESVDSYGNSFIHWYQQKPGQPPKLLIYRASNLKSGIPARFSGSGSRTDFTLTINPVEADDVATYYCQQSNEDPYTFGGGTKLEIK"
binds,no binding,no binding,–,"6-P20 (antibody, V domains shown, mouse hybridoma IgG) VH: EVQLQQSGPELVKPGASVKISCKASGYTFTDYYMNWVKQSHGRSLELIGDINPNNGGSNFNQKFRGKATLTVDKSSSTAYMELRSLTSEDSAIYYCARMGYWGQGTLVTVSA VL: not shown"
binds,no binding,binds,binds,"10-K10 (antibody, V domains shown, mouse hybridoma IgG) VH: EVQLQQSGPELVKPGASVKMSCKASGYTITDYYMMWLKQSHGKSLEWIGDINPYTGGTSYNQKFKGKATLTVDKSSSTAYMQLNSLTSEDSAVYYCARGAYWGQGTTLTVSS VL: not shown"
binds,no binding,binds,–,"6-A15 (antibody, V domains shown, mouse hybridoma IgG) VH: EVQLQQSGPELVKPGASVKMSCKASGYTITDYYMMWLKQSHGKSLEWIGDINPYTGGTSYNQKFKGKATLTVDKSSSTAYLQLHSLTSEDSAVYYCARGAYWGQGTTLTVSS VL: not shown"
binds,no binding,binds,–,"2-A3 (antibody, V domains shown, mouse hybridoma IgG) VH: EVQLQQSGPELVKPGASVKMSCKASGYTFTDYYMMWVKQSHGKSLEWIGDINPYNGGSSYNPKFKGRATLTVDKSSSTAYMQLNSLTSEDSAVYYCARGTYWGQGTLVTVSA VL: not shown"
binds,–,binds,binds,"7-O8 (antibody, V domains shown, mouse hybridoma IgG) VH: EVQLQQSGPELVKPGASVKMSCKASGYTFTDYYIHWVKQKPGQGLEYIGEIYPGSGNTYYNGKFRGKATLTADKSSSTAYMQLSSLTSEDSAVYFCGSGYFDYWGQGTTLTVSS VL: not shown"
binds,no binding,no binding,–,"6-M8 (antibody, V domains shown, mouse hybridoma IgG) VH: QVQLQQPGAELVMPGASVKLSCKASGYTFTNYWMHWVKQRPGQGLEWIGEIDPSDSYTNYNQKFKGKATLTVDKSSSTAYMQLSSLTSEDSAVYYCTRQGSTYAWGQGTSVTVSS VL: DIVMTQAAFSNPVTLGTSASISCRSSKSLLHSNGITYLYWYLQKPGQSPQLLIYQMSNLASGVPDRFSSSGSGTDFTLRISRVEAEDVGVYYCAQNLELPPTFGGGTKLEIK"
